B1: RAD51 (parent)
chain: APKKELINIKGISEAKADKILAEA
B2: TMEM192 (parent)
chain: LWILHLLLECYIQYHHSKIRNRGY

Variants of: B1
Assay: protein stability index of a GFP-peptide fusion (GPS, HEK-293T) (PSI 1-6); higher = more stable
Settings: c terminus: a fixed tail appended
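Note: lentivirally expressed fusions sorted by FACS into six bins by GFP to DsRed ratio, PSI derived from sequencing read proportions per bin multiplied by bin number.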

Protein stability index of substitutions, site by site:
A24: D 4.83 | F 3.53 | W 3.97 | Y 3.76 | R 4.83 | G 4.9 | P 4.91 | E 3.9 | N 4.96 | V 4.26 | M 4.34 | I 3.61 | Q 5.1 | L 4.4 | T 5.36 | H 4.76 | C 4.51 | S 4.75 | K 5.26
A22: V 4.79 | Y 3.8 | R 4.84 | W 3.58 | S 4.61 | T 3.9
E23: W 3.02 | K 4.46 | F 3.46 | P 4.34 | I 3.36 | H 3.85 | M 3.72 | C 3.38 | R 3.85 | T 4.13 | S 3.79 | A 4.18 | Q 4.26 | L 3.43 | D 4.96 | G 4.1 | V 3.73 | N 4.58 | Y 3.37

Variants of: B2
Assay: as above
Settings: c terminus: a fixed tail appended

Protein stability index of substitutions, site by site:
S17: D 2.04 | Y 4.45 | W 2.15 | N 2.6 | A 2.68 | V 1.59 | C 2.7 | R 3.51 | M 1.11 | G 2.28 | I 2.57 | H 2.86 | Q 2.37
L7: T 3.78 | D 3.52 | F 1.88 | A 3.25 | C 2.32 | R 1.89 | N 2 | E 2.73 | V 3.56 | Y 2.48 | H 2.78 | I 3.46
E9: I 2.56 | N 1.44 | V 3.35 | G 2 | D 1.94 | M 2.33 | C 3.27 | S 2.28 | W 3.27 | H 1.47 | T 1.96 | Q 2.48 | P 3.73 | K 3.05 | F 3.6
H5: D 1.05 | E 2.26 | I 2.77 | T 2.61 | Q 1.72 | K 2.35 | C 1.66
Y11: D 1.25 | F 3.94 | I 2.47 | H 1.77 | G 3.4 | T 2.21 | Q 2.06 | N 3.81 | E 3.19 | K 1.93 | S 3.45
K18: R 4.17 | S 3.8 | M 3.16 | H 4.09 | D 3.53 | T 2.76 | F 2.88 | E 2.77 | P 2.32 | Q 2.67 | G 2.69 | N 3.08
L6: M 1.65 | P 1.97 | I 1.65 | T 2.81 | A 2.43 | E 2.09 | H 2.37 | Y 1.8 | N 1.97 | Q 1.99 | C 1.67 | K 2 | G 1.69 | D 1.87
I3: T 2.34 | Y 1.62 | E 1.68 | G 1.37 | S 2.32 | C 2.62 | D 1.71 | H 2.09 | A 1.76 | K 2.31 | V 2.65 | W 1.61 | Q 1.37 | R 1.74 | M 1.35
L1: M 1.48 | T 3.75 | Y 2.72 | H 4.56 | D 3 | E 3.02 | K 2.06 | Q 3.9 | I 2.1 | C 2.89
L8: D 4.78 | Y 2.71 | I 3.28 | T 2.86 | M 2.01 | F 2.57 | K 2.54 | P 2.11
L4: Y 2.68 | M 2.39 | R 3.42 | T 1.17 | S 3.7 | I 2.29 | V 1.83 | A 4.26 | P 2.85 | H 3.85 | C 2.96
R22: F 2.93 | A 2.18 | L 2.44 | Y 1.98 | P 1.67 | N 2.26 | Q 3.54 | I 2.69 | D 3.49 | S 2.66
I19: V 2.01 | N 1.88 | H 1.43 | Q 1.55 | S 1.78 | P 2.04 | L 2.14 | G 2.44 | K 1.31 | R 1.96 | F 3.16 | A 2.33 | D 1.73
R20: N 2.26 | I 3.52 | A 3.18 | Q 1.87 | M 3.17 | K 1.97 | W 2.45 | P 3.47 | S 2.63 | T 2.38
N21: G 2.35 | V 2.93 | A 2.86 | P 2.81 | Y 2.6 | H 2.53 | W 2.74 | S 2.7 | I 2.45 | L 2.11 | F 1.97 | K 1.98
W2: M 2.41 | R 1.63 | P 1.23 | V 3.84 | Q 2.66 | A 2.2 | E 1.73 | H 2.14 | G 2.73 | K 1.94 | T 1.86 | D 1.88 | S 1.58 | Y 1.25
Q13: K 2.05 | R 2.9 | L 2 | H 2.98 | D 2.32 | M 2.08 | T 1.75 | P 3 | N 3.19 | C 2.06 | F 2.88 | I 2.75 | G 1.39 | Y 1.85 | A 3.94
G23: T 2.78 | A 2.48 | V 3.73 | R 1.78 | P 3.17 | W 1.77 | K 2.54 | Y 1.89 | C 2.04 | I 2.99 | Q 2.51
Y14: W 1.1 | A 3.1 | R 2.11 | N 1.53 | D 2.21 | L 3.2 | H 2.31 | Q 2 | I 1.79 | T 2.49 | P 2.67 | K 2.01 | S 2.47 | E 2.18
H15: Y 2.86 | V 2.15 | M 2.41 | S 2.72 | L 2.14 | T 1.25 | G 2.37 | C 2.19 | N 2.7 | P 2.18 | R 2.33 | D 1.56 | Q 2.24
H16: R 1.5 | W 2.85 | I 3.68 | E 1.91 | S 1.05 | L 1.85 | P 2.29 | N 1.3 | C 2.41 | F 2.36 | Q 2.43 | G 2.53
C10: W 1.4 | D 2.63 | E 1.94 | H 1.98 | R 2.03 | Q 1.95 | A 2.09 | K 1.72 | Y 2.2 | S 1.72 | P 2.22 | L 4.54 | F 2.53
Y24: A 2.18 | S 2.3 | T 1.12 | N 2.44 | H 1.62 | M 2.28 | C 1.79 | I 2.54 | Q 1.57
I12: H 1.95 | Q 1.62 | N 2.13 | S 1.94 | E 1.88 | K 2.21 | T 2.58 | R 2.8 | M 1.82 | D 1.5 | L 2.53 | W 1.79 | G 1.07 | C 1.69 | F 3.41 | V 2.27
